The nanobody polyreactivity screen of Harvey et al. (2022)

Assay: yeast display, Sf9 membrane polyspecificity reagent, FACS + sequencing; frameworks hold sequencing errors
In short: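 Genes from sorted yeast were amplified by colony PCR, read by MiSeq 2 × 250 sequencing and filtered on CDR length. These cells carried a synthetic nanobody library in Saccharomyces cerevisiae BJ5465 and were sorted by FACS into low and high (top ~1%) gates on anti-HA and streptavidin fluorescence. Polyreactivity is labelled according to the gate of origin.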

Sequence | polyreactivity (PSR sort gate)
QVQLVESGGGLVQAGGSLRLSCAASGRTYGYAMGSYRPAPGKERELVARITWRGGSTSYADSVKGRFTISRDNAKNTVYLQMNILKPEDTAVYYCAAGFYFPVYTYVRIRYYYWGQGTQVTVSS | high polyreactivity
HVPLVESGGGLVQAGGSLRLSCAASGSTFSVNVLGWYRLAAGKERELVAAITQAGGSTYYADSVKGRFSISRDTAKNTVYLQMNSLKPEDTAGYYCAVEKWSVYSFFLEGADYWGQGTQLTVSS | low polyreactivity
QVQLVESGGGLVQAGGSLRLSCAASGSIIFVYAMGCYRQAPGKERELVAGINSSGTSTYADSVKGRFTISRDNAKNTVYLQMNSLKPEDTAVYYCAARWFYYRWAYDYWGQGTQVTVSS | low polyreactivity
QVQLVESGGGLVQAGGSLRLSCAATGFTFYGYAMGWYRQAPGKERELVAAISRRSSSTYYADSVKGRFTISRDNAKNTVYLQMNSLKPEDTAVCYCNTVFQRSGYAAGVDYWGQGTQVTVSS | high polyreactivity
QVQLVETGGGLVQAGGSLRLSCAASGRIFVVYDMGWYRQAPGKERELVANITISGGRTYYADSVKGRFTISRDNAKNTVYLQMNSLKPEDTAVYYCAATSGALYYGYEYWGQGTQVTVSS | low polyreactivity
QVQLVESGGGLVQAGGSLRLSCAASGSIFSAYVMGWYRQAPGKERELVAAITRSGGSTYYADSVKGRFTISRDNAKHTVYLQMNSLKPEDTAVYYCAAKSIIRPYAPRRDDMDYWGQGTQVTVSS | low polyreactivity
QVQLVESGGGLVQAGGSLRLSCAASGNIFQKYAMGWYRQAPGKERELVAAIRRGDRTYADSVKGRFTISRDNAKNTVYLQMISLKPEDTAVYYCAAPQVWWGYYTRGVDYWGQGTQVTVSS | low polyreactivity
QVQLVESGGGLVQAGGSLRLSCAASGSIFIGYAIGWYRQAPGKERELVAAITNGGRTYFADSVKGRFTISRDNAKNTVYLQMISLKPEDTAVYYCAAVPSQTYRRTPYLWHDYWGQGTQVTVSS | high polyreactivity
QVHLVESGGGLVQAGGSLRLSCADSGSTFKNYAMGWYRPAPGKERELVATITKRGGSTYYADSVKGRFTISRDNAKNTVYLQMKSMKPEDTAVYYCAAAPNGPRYRDRFDYWGQGNQVTVSS | high polyreactivity
QVQLVESGGGLVQAGGSLRLSCAASGIIFTTNMGWYRQAPGKERELVATIRVNGGRTYYADSVKGRFTISRDNAQNTVYLQMNSLKPEDTAVYYCAARYSAGAQRYGYWGQGTQVTVSS | high polyreactivity
QVQLVESGGGLVQAGGSHRLSCAATGLTFAYYDMGWYRQAPGKERELVAAITSGGTTNYADSVKGRFTISRDNAKNTVYLQMNSLKPEDTAVYYCNADYYSRIVGVRIYDYWGQGTQVTVSS | low polyreactivity
QVQLVESGGGLVLAGGSLRLSCAASGTIFGYYAMGWYRQAPGKDRELVAAITSDGDTYYADSVKGRFTISRDNAKNTVYLQMNSLKPEDTAVYYCNATYGGPYYIQYDYWGQGTQVTVSS | low polyreactivity
QVQLVESGGGLVQAGGSLRLSCAASGITFHGYAMGWDRQAPGKERELVAAISDSGSSTYYADSVKGRFTISRDNAKNTVYLQMNSLKPEHTAVYYCAAVSGFYDQYDYWGQGTQVTVSS | low polyreactivity
QVQLVESGGGIVQAGGSLRLSCAASGFTFGYYARGWYRQAPGKERELVAAISSRVGRTYYADSVKGRFTISRDNAKNTDYLQMNSLKPEDTAVYYCNTVGKTQWYYYWGQGTQVTVAS | high polyreactivity
QVQLVESGGGLVQAGGSLRLSCAASGRIFYYYAMGWYRQAPGKERELVAAISSIGGSTYADSVKGRFTISRDNAKNTVYLQMNSLKPEDTAVYYCAADGFKRLYTQVAHVRYDYWGQGTQVTVSS | low polyreactivity
QVQLVESGGGLVQAGGSLRLSCAASGRILWSYAMGWYRQAPGKEREFVAAISRGGGTTYYADSVKGRFTISRDNAKNTVYLQMNSLKPEDTAVYYCNAGDHIRKRYGISATWGYGYGYWGQGTQVTVSS | high polyreactivity
QVQLVESGGGLVKAGGSLRLSCAASGFNFGGNVMGWYRQAPGKERELVAAITYSGGSTYYADSVKGRFTISRDNAKNTVYLQMNSLKPEDTAVYYCAAVQRKYYIDPAYDYWGQGTQVTVSS | low polyreactivity
QVQLVESGRGLVQAGGTLRLSCAASGSTFGSYAMGWYRQAPGKEREFVATISRSGGRTYYAASVKGRFTISRDNAKNTVYFQMNSLKPEDTAVYYCATDRRYWIGYDYWGPGTQVTVSS | high polyreactivity
QVQLVESGGGLVQAGGSLRLSCAASGFIFYIYAMGWYRQAPGKERELVAAISWNGGSTYYADSVKGRFTISRDNAKNTVYLQMNSLKPEDTAVYYCATLARYRYGTGRFDYCGQGTQVTVSS | high polyreactivity
QVKLVESGGGLVQAGGSLRLSCAASGITIRFNAMGWYRQAPGKERELVPAITSSGGRTYYADSVKVRFTISRDNAKNTVYLQMNSLKPEDTAVYYCAAYYRYSTTEDRSVYRGYYYWGQGTQVTVSS | high polyreactivity

Sequence | polyreactivity (PSR sort gate)
QVQLVESGGGLVQAGGSLRLSCAASGRIFYTNAMGWYRQAPGKERELVAGITGSGDSTYYADSVKGRFTISRDNAKNTVYLQMNSLKPEDTAVYYCAARWRYVLMDYWGQGTQVTVSS | low polyreactivity
QVQLVESGGGLVQAGGSLRLSCAASGFTFIDYTMGWYRQAPGKERELVARITDTGSTNYADSVKGRFTISRDNAKNTVYLQMNRLKPEDTAVYYCNKDDRNDRTIPGYDPEYDYWGQGTQVTVSS | low polyreactivity
QVQLVESGGGLVQAGGSLRLSCAASGRILASYAMGWYRQAPGKECELVAAIRYRGSTSYADSVKGRFTISRDNAKNTVYLQMNSLKPEDTAVYYCAAKWHVRGRGARYRYDYDYWGQGTQVTVSS | low polyreactivity
QVQLVESVGGLVQAGGSLRLSCAGSGFTFYRYTMGWYRQAPGTERELVAAISFSGGITRYADSVKGRFTISRDNAKNTVYLQMNSLKPEDTAVYYCNVVGPSAYLSWHKSGDYWGQGTQVTVSS | low polyreactivity
QVQLVESGGGLVQAGGSLRLSCAASGSTLYGNVMGWYRQAPGKERELVATINRGGSTNYADSVKGRFTISRDNAKNNVYLQMNSLKPEDTAVYYCAADYYGYWYDYEGDHWGQGTQVTVSS | low polyreactivity
QVQLVESGGGLVQAGGRLPISCAASGLTFTSNAMGGYIQAPGKERELVASITWYGGSTSYADSVKGRFTISRDYAKNTVDFQMNSLKPEDTAVSYCAADAWRSYGYRAYYYWGQGTQVTVSS | high polyreactivity
QFQLVESGGGLVQAGGSLRLSCAASGFIIRVNAMAWYRQAPGTERQLVATITWNGGSTYYADSVKGRFTISRDNAKNTVYLQMNSLKPDDTAVYYCNRVRYRGYYPGPYSYSYDYWGQGTQVTVSS | low polyreactivity
QVQLVESGGGLVQAGGSLRLSCAASGTIFASYAMGWYRQAPGKERELVAAISDGGGRTYYADSVKGRFTISRDNAKNTVYLQMNSLKPEDTAVYYCAAYAVYTYRRARGYWGQGTQVTVSS | high polyreactivity
QVQLVESGGGLVQAGGSLRLSCAASGSTFGNYAMGWYRQAPGKERELVAVITSAGSTYYADSVKGRFTISRDNAKNTVYLQMNSLKPEDTAVYYCNTGKHVRYYYWGQGTQVTVSS | low polyreactivity
QVQLVESGGGLVQAGGSLRLSCAASGSILEVYAMGWYRQAPGKERELVAAISDGDSTYYADSVKGRFTISRDNAKNTVYLQMNSLKPEDTAVYYCAAEFVGTLWWYDDWGQGTQVTVSS | low polyreactivity
QVQLVESGGGLVQAGGSLRLSCAPSGSTFRVYGMGWYRQAPGKETELVAVIRWRGGRTSYADSVKGRFTISRDNAKNTVYLQMNSLKPEDTAVYYCAAAYWNDWSQYDYWGQGTQVTVSS | high polyreactivity
QVQLVESGGGLVQAGGSLRLSCAASGGTIAFNGMGWYRQAPGKERELVAAITWRSGSTYYADSVKGRFTISRDNAKNTVYLQMNSLKPEDTAVYYCAARLYRYTPFDYWGQGTQVTVSS | high polyreactivity
QVQLVESGRGLVQAGGSLRLICDASGSTFFLYGMGWYRPAPGKERELVAAITWNGGSTYYADSVKGRFTISRDNAKNTVYLQMNSLKPEDTAVYYCAADYYGYFSTPYDYWGQGTQVTVSS | low polyreactivity
QFHLVESGGGLVQAGGSLRLSCAASGSIFYPYDMGWYRQAPGKERELVATINWSSGRTNYADSVKGRFTISRDYAKNTVYLQMNSLKPEDSAVYYCNARFYYTLYYDYWGQGTQVTVSS | high polyreactivity
QVQLVESGGGLVQAGGSLRLSCAASGRIFTTNVMGWYRQAPGKERELVAAISWSGGNTYYADSVKGRFTISRDNAKNTVYLQMNSLKPEDTAVYYCNAVGTIREGDSWGQGTQVTVSS | low polyreactivity
QVQLVESGGGLVQAGASLRLSCAASGRIFVVNAMGWYRQAPGKERELVATITRSGGITYYADSVKGRFTISRDNAKNTVYLQMNSLKPEDTAVYYCNADVLFYTYYTRGRFDFDYWGQGSQVTVSS | low polyreactivity
QVQLVESGGGLVQAGGSLRLSCAASGSIFVTYAMGWYRQAPGKERDLVATITNVGRTNYADSVKGRFTISRDNAKNTVYLQMNSLKPEDTAVYYCNADGAPGYPGAYDYWGQGTQVTVSS | low polyreactivity
QVQLVESGGGLVQAAGSLRLSSAPSVSSFRNKAMGWYRQAPGKERELVASISSSGDSTYADSVKGRFTISRDNAKNTVSLQMNSLKPEDTAVYYCARDYLSPYAVDYWGQGTQVTVSS | low polyreactivity
QVQLVESGGGLVQAGGSLRLSCAASGSTFARNAMGRNRQAPGKERELVARITWSGSGTFYADPVKGRFTISRDNAKNTVYLQMYCLKPQDTAVYYCASEGPSAGFDYWGQGTQVTVSS | high polyreactivity
QVQRVESGGGLVQAGGSLRLSCAASGSIFRGYAMGWYRQEPEKERELVAAISRRGGSTYYADSVKGRFTISRDNAKNTVYLQMNSLKPEDTAVYYCAIDGTGAGTYDYWGQGTQVTVSS | low polyreactivity
